Experimental data from patent US20180141977A1 (NORWEGIAN UNIVERSITY OF SCIENCE AND TECHNOLOGY NTNU, published 2018).

Molecular target: T1, β-clamp protein from E. coli (E. coli, UniProt P0A988 1-366, labeled with a fluorescent molecule (site not stated))
T1 construct: Fluorescently labelled for microscale thermophoresis; also called sliding clamp
Assay: microscale thermophoresis, fluorescently labelled β-clamp, peptide titrated (table cell the 66th table, row 38, column 4 prints 'Nd')

T1 sequence (P0A988 whole entry): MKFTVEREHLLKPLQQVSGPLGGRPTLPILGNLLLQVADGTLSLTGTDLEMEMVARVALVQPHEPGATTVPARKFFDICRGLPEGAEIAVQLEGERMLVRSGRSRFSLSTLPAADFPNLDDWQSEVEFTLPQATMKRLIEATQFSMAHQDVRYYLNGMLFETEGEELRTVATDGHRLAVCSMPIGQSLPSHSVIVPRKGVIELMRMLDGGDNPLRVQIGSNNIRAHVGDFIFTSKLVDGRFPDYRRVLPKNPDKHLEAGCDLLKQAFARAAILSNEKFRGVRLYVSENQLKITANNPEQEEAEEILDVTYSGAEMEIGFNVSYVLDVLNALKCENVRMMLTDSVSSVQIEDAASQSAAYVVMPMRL

B1: R11 peptide (SEQ ID NO: 337) (peptide)
peptide: RRRRRRRRRRR
notes: Control peptide without APIM motif; also called cell penetrating peptide
  binding result: no binding
